Data on 167 variants can be found in the RNAGym collection of RNA variant scans (doi:10.7554/elife.80360).

First the molecules themselves.
B1: Hairpin Ribozyme (parent)
chain: GUCCUCUUUCACGUGCGCGUGAAAGAGAGAAGUGAACCAGAGAAACACACGUUGUGGUAUAUUACCUGGUA

In this data set the parent is B1. In words: self-cleavage, relative activity (ratio to wild type); higher = more cleavage; co-transcriptional.
Turning to U5G A71U, the self-cleavage was 0.306. The same measure for C12A C16A: 0.964. As for U14G A35G, the self-cleavage amounted to 0.715. With U2C A41U, the self-cleavage worked out at 0.283. The result for C38U A59U reads 0.228; that for U60A G68U, 0.189; that for U2A A49U, 0.0799. Turning to C37U G42A, the self-cleavage turned out to be 0.198.

For the variant U53G G69U, the self-cleavage was 0.279. The result for G13U U33G reads 0.0972; that for G13U U33C, 0.102; that for A30G C38A, 0.0519. Consider U62A G69U, for which the self-cleavage was determined as 0.04. As to C12G A49C, the self-cleavage is 0.196. In the case of U5A A35C, the self-cleavage is 0.364.

Regarding C50U A59C, the self-cleavage was found to be 0.166. On to A30U U62G, for which the self-cleavage amounted to 0.108. Consider G13A G25A, for which the self-cleavage is 0.484.

As for A30U A35G, the self-cleavage came to 0.217.

As to U9C A49G, the self-cleavage came to 0.21.

As to C3G A26C, the self-cleavage turned out to be 0.276. For the variant G19A U55A, the self-cleavage is 0.29. Regarding U7A U33A, the self-cleavage is 0.218. On to C3G A39G, for which the self-cleavage amounted to 0.108. On to G17U C46U, for which the self-cleavage is 0.14. Turning to U7G G32C, the self-cleavage came out at 0.161.

Consider G42A U60G, for which the self-cleavage is 0.157. Turning to C18U A45C, the self-cleavage came out at 0.218. The result for G29C A47U reads 0.093; that for C38U U70C, 0.268; that for G29A U62C, 0.0819. The same measure for A22G U63C: 0.245. As for U55C C65A, the self-cleavage worked out at 0.142.

With A28U U33A, the self-cleavage was 0.152. In the case of G34U A39C, the self-cleavage was 0.857.

Regarding A30C C66A, the self-cleavage is 0.0863.

In the case of G17C G56A, the self-cleavage stood at 0.0625. Turning to C10A C16A, the self-cleavage was 0.907. The result for A24G U53C reads 0.881. For U14A A71G, the self-cleavage was found to be 1.08. U53C U58C: the self-cleavage worked out at 1.26.

In the case of U8A A71U, the self-cleavage stood at 0.631. The same measure for A28G C37U: 0.644; for G25U U52G: 0.696; for A49C U60G: 0.166. The same measure for U8G C46G: 0.128; for G40C U55A: 0.107; for G15A: 0.906. The result for A22G G69C reads 0.209; that for U9C C38G, 0.145. With C3G A35C, the self-cleavage came out at 0.36. The result for U53A G57A reads 0.14; that for U9C A45C, 0.121. For the variant A22G U60C, the self-cleavage came out at 0.899. Turning to C18G U33A, the self-cleavage amounted to 0.169. For the variant A22C A28C, the self-cleavage stood at 0.386. Turning to A24G C48G, the self-cleavage came out at 0.181. On to U55A G68U, for which the self-cleavage is 0.17. Regarding U20C A35C, the self-cleavage amounted to 0.785. As for A47U G69C, the self-cleavage was found to be 0.227. G17C G40U: the self-cleavage was found to be 0.144. As for G17A G51A, the self-cleavage is 1.06. Take G15U G29U: the self-cleavage was 0.124.

For the variant A43G U58C, the self-cleavage was found to be 0.12. In the case of G27A A35C, the self-cleavage stood at 0.485. With U9C G25U, the self-cleavage came out at 0.386.

Turning to A28U G54C, the self-cleavage stood at 0.219.

For U5G A49G, the self-cleavage was found to be 0.109. In the case of C12A A71G, the self-cleavage amounted to 0.848. Regarding C10G U52A, the self-cleavage is 0.705. G29U C37U: the self-cleavage was determined as 0.192.

Turning to C12G U33A, the self-cleavage amounted to 0.0646. As to U2C A23G, the self-cleavage was 0.116.

Take G1A C16U: the self-cleavage worked out at 0.217.

For U8A C16U, the self-cleavage turned out to be 0.788. The result for G17A A36C reads 0.607; that for A35U C48A, 0.186; that for G13C C18A, 0.932. As to A24U A61C, the self-cleavage stood at 0.0949. Turning to A31U G40U, the self-cleavage stood at 0.182.

On to A31U G40C, for which the self-cleavage is 0.154. The same measure for G19C U60C: 0.984; for G29A A31G: 0.145; for G29C A31G: 0.187.

With G40A C66U, the self-cleavage is 0.832. As for C12A A28G, the self-cleavage was 0.836. Consider A22C A44C, for which the self-cleavage turned out to be 0.0803. The same measure for U9G A43C: 0.0922; for A23G U52G: 0.78. Regarding U52A A64G, the self-cleavage came to 0.603. On to G19U A24G, for which the self-cleavage stood at 0.926. The result for A47G A71G reads 0.142; that for C4A G13A, 0.193. Take C4A C18G: the self-cleavage worked out at 0.198. On to A31G G68A, for which the self-cleavage was 0.189. The same measure for U20G U55A: 0.147; for C38U U55C: 0.231.

Consider C18G G51A, for which the self-cleavage was 0.933. As to A45U G56A, the self-cleavage is 0.166. As for G21C G25U, the self-cleavage turned out to be 0.399. Turning to C10G U20A, the self-cleavage was determined as 0.484.

Consider A22G C48A, for which the self-cleavage was determined as 0.16. Turning to C12U U33G, the self-cleavage stood at 0.207. The result for C16U G19U reads 0.661; that for U20C C46A, 0.237; that for G17C A23G, 0.458. G29A C46A: the self-cleavage is 0.0992.

As to G29A C46G, the self-cleavage came out at 0.0584. In the case of A31C C65U, the self-cleavage amounted to 0.0838. For U2A U67G, the self-cleavage is 0.158. For the variant G32C U63G, the self-cleavage was 0.035. In the case of G1A C4U, the self-cleavage turned out to be 0.241. For U33G U60C, the self-cleavage came out at 0.195. For U20G C48G, the self-cleavage was found to be 0.179.

For the variant A24U A39G, the self-cleavage was 0.34.

Regarding C18G U67C, the self-cleavage turned out to be 0.212.

For C10U G15C, the self-cleavage stood at 0.825. U14A C37G: the self-cleavage was 0.295. Consider A35C C38U, for which the self-cleavage was found to be 0.312. Turning to G1A A64G, the self-cleavage worked out at 0.187. The same measure for C10A A11U: 0.41; for A45G C65U: 0.146; for G51A U70C: 1.1. Take A24U U67G: the self-cleavage came to 0.231. On to C48G U53G, for which the self-cleavage came out at 0.128. In the case of G1U U55C, the self-cleavage was 0.217. The same measure for A35G G54U: 0.513; for G15C G57A: 0.24; for C6G G32C: 0.0741. The same measure for G21A G68C: 0.15; for G25C C38U: 0.263. With C4A C66G, the self-cleavage worked out at 0.193. The result for U20A C50A reads 0.423; that for C10A U63G, 0.152; that for A35G A41G, 0.814. The same measure for A41G U55C: 0.23; for A30U C38U: 0.232; for G27C U60C: 0.333. Consider U2G C66A, for which the self-cleavage was determined as 0.147.

Take C38U C46A: the self-cleavage is 0.182. For the variant C18G A59U, the self-cleavage was found to be 0.239. With A43U A49U, the self-cleavage came out at 0.27.

A22C A26U: the self-cleavage was 0.429. U9C A26C: the self-cleavage was 0.426.

Regarding U9C C16A, the self-cleavage worked out at 0.761. The same measure for U2C U14G: 0.075; for A31G A61G: 0.118; for U62C G68A: 0.2.

Consider G25A G29A, for which the self-cleavage turned out to be 0.204. The same measure for A28G A39C: 0.748; for U7G A59U: 0.116. The same measure for G15U A36C: 0.839; for U5G C38U: 0.195. As for G19C A28G, the self-cleavage is 1.15. For the variant A11U G34A, the self-cleavage came out at 1.13. As to A39U U53A, the self-cleavage turned out to be 0.233. For the variant A24G A64U, the self-cleavage came to 0.135. Turning to G13A C16U, the self-cleavage was found to be 1.03. Take C46A A47G: the self-cleavage amounted to 0.133.

In the case of G19U C37A, the self-cleavage came to 0.34. On to A45C C46G, for which the self-cleavage was 0.152.

As for C4G U9C, the self-cleavage was 0.274. As to A49C U53A, the self-cleavage came to 0.0758. G19A C38U: the self-cleavage came out at 0.508. For A22U A39U, the self-cleavage came to 0.359. Take A31U U33G: the self-cleavage worked out at 0.143.

Consider U33C C66G, for which the self-cleavage is 0.112.
